# Where two headings read alike, the source gives them in different places. Where no end group is shown, it is not given here.
# T1: cyclo(CGTKEQGGGG), free (cyclized via a head-to-tail (C-G) amide bond)
# T1 construct: free cyclic peptide, not conjugated; also called (1,4)-C-Free
# T1 peptide: CGTKEQGGGG
# T2: cyclo(CGGTKEQGGGG)-BSA (also: conjugated to BSA via maleimide-based coupling)
# T2 construct: also called (2,4)-C-BSA; 2,4-C-BSA
# T2 peptide: cyclo(CGGTKEQGGGG)
# T3: Linear CGGTKEQGG-BSA (also: conjugated to BSA)
# T3 construct: linear peptide-BSA screening antigen; also called (2,2)-L-BSA; (2, 2) L-BSA
# T3 peptide: CGGTKEQGG
# T4: cyclo(CGTKEQGGGG)-BSA (also: conjugated to BSA via maleimide-based coupling)
# T4 construct: also called (1,4)-C-BSA; 1,4-C-BSA
# T4 peptide: cyclo(CGTKEQGGGG)
# T5: cyclo(CGGTKEQGG)-BSA (also: conjugated to BSA via maleimide-based coupling)
# T5 construct: also called (2,2)-C-BSA; (2, 2) C-BSA
# T5 peptide: cyclo(CGGTKEQGG)
# T6: cyclo(CGGGGEKTKGG)-BSA (also: conjugated to BSA)
# T6 construct: also called ASPEP(4,2)-C-BSA
# T6 peptide: cyclo(CGGGGEKTKGG)
# T7: cyclo(CGGGEKTKGG)-BSA (also: conjugated to BSA via maleimide-based coupling)
# T7 construct: also called ASPEP(3,2)-C-BSA
# T7 peptide: cyclo(CGGGEKTKGG)
# T8: cyclo(CGGTKEQGGGG), free (cyclized via a head-to-tail (C-G) amide bond)
# T8 construct: free cyclic peptide, not conjugated; also called (2,4)-C-FREE
# T8 peptide: CGGTKEQGGGG
# B1: 10D5 (antibody, V domains shown)
# VH: EVQLQQSGAELVRPGALVKLSCKGSGFNIKDYYMSWVKQRPEQGLEWIGWIDPENDNTIYDSKFQGKASITADTSSNTAYLQFSSLTPEDTAVYYCAMGGFTYWGQGTLVTVSA
# VL: not shown
# B2: 3C11 (antibody, V domains shown)
# VH: EVQLQQSGAELVKPGASVKLSCTASGFNIKDTYIHWMKQRPEQGLEWIGRIDPANGNTKYDPEFQDKATIAADTSSNTAYLQLSSLTSEDTAVYYCSNWDYFDYWGQGTALTVSS
# VL: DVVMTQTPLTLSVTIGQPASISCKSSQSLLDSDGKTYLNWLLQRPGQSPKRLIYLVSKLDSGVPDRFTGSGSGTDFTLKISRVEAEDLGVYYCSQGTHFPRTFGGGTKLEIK
# B3: 12G1 (antibody, V domains shown)
# VH: QIQLVQSGPELRKPGETVRISCKASGYTFTTAGMQWVQKMPGKGLKWIGWINTHSGVPKYAEDFKGRFAFSLETSASTAYLQISNLKNEDTATYFCARTSWAPYWGQGTLVTVSA
# VL: not shown
# Legend:
# [1] = molecular target: T9, alpha-synuclein oligomers (UniProt P37840 1-140); assay: cell-based or functional assay
# [2] = molecular target: T10, alpha-synuclein sonicated preformed fibrils (soluble fibrils) (human, UniProt P37840 1-140); assay: Millipore SMC, antibody-coated magnetic particles, detection with labeled 4D6
# [3] = molecular target: T9, alpha-synuclein oligomers; assay: as above
# Human Transferrin [4] = molecular target: T11, Human Transferrin (human, UniProt P02787 20-698); assay: indirect ELISA
# T11 construct: irrelevant antigen in ELISA; also called HT
# T11 sequence (P02787 20-698 limits assumed): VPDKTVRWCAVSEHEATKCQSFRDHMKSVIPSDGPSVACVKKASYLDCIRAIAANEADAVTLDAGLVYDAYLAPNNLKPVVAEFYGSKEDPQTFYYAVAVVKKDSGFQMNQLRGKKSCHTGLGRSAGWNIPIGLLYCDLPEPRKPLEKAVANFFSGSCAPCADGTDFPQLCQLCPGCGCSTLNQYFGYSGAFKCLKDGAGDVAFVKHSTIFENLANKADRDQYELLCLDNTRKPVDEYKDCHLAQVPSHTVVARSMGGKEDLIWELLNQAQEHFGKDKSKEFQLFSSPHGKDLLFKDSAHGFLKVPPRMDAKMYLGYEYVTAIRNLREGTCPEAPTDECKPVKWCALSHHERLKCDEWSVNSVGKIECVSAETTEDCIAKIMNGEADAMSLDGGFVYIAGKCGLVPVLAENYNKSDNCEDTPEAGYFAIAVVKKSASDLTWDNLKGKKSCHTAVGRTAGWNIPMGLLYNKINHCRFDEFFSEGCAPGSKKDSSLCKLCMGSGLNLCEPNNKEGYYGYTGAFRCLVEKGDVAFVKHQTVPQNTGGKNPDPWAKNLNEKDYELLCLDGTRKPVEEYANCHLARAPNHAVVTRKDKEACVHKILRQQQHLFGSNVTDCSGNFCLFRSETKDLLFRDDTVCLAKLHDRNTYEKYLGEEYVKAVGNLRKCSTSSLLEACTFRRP
# cyclo(CGTKEQGGGG), free [5] = molecular target: T1, cyclo(CGTKEQGGGG), free; assay: indirect ELISA
# [6] = molecular target: T12, Bovine serum albumin (BSA) (bovine, UniProt P02769 25-607); assay: indirect ELISA
# T12 construct: carrier protein alone as ELISA control
# T12 sequence (P02769 25-607 limits assumed): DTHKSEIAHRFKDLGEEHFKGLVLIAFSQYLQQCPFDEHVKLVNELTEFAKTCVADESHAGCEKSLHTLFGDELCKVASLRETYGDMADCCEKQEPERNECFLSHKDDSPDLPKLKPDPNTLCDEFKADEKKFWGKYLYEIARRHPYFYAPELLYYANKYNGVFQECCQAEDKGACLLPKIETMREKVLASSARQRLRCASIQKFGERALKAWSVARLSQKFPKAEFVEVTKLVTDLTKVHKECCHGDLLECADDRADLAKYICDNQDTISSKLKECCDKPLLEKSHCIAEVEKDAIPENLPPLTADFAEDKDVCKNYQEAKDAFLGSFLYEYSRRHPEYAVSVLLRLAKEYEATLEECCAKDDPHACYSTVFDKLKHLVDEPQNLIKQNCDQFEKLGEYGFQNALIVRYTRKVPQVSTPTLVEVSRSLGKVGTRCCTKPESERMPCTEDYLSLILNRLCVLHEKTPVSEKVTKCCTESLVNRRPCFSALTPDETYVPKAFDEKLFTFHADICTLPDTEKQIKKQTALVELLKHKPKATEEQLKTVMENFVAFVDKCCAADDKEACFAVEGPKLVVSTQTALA
# HSA [7] = molecular target: T13, HSA (human, UniProt P02768 25-609); assay: indirect ELISA
# T13 construct: irrelevant antigen in ELISA; read as human serum albumin; also called Hum; SA; HAS
# cyclo(CGGTKEQGGGG)-BSA [8] = molecular target: T2, cyclo(CGGTKEQGGGG)-BSA; assay: indirect ELISA
# Linear CGGTKEQGG-BSA = molecular target: T3, Linear CGGTKEQGG-BSA; assay: indirect ELISA
# cyclo(CGTKEQGGGG), free [9] = molecular target: T1, cyclo(CGTKEQGGGG), free; assay: indirect ELISA
# cyclo(CGTKEQGGGG)-BSA [10] = molecular target: T4, cyclo(CGTKEQGGGG)-BSA; assay: indirect ELISA
# cyclo(CGGTKEQGG)-BSA [11] = molecular target: T5, cyclo(CGGTKEQGG)-BSA; assay: indirect ELISA
# Human Transferrin [12] = molecular target: T11, Human Transferrin; assay: indirect ELISA; remark: listed apart in the source
# [13] = molecular target: T12, Bovine serum albumin (BSA); assay: indirect ELISA; remark: listed apart in the source
# [14] = molecular target: T14, human complement factor H (HCFH) (human, UniProt P08603 19-1231); assay: indirect ELISA
# T14 construct: unrelated protein in ELISA
# T14 sequence (P08603 19-1231 limits assumed): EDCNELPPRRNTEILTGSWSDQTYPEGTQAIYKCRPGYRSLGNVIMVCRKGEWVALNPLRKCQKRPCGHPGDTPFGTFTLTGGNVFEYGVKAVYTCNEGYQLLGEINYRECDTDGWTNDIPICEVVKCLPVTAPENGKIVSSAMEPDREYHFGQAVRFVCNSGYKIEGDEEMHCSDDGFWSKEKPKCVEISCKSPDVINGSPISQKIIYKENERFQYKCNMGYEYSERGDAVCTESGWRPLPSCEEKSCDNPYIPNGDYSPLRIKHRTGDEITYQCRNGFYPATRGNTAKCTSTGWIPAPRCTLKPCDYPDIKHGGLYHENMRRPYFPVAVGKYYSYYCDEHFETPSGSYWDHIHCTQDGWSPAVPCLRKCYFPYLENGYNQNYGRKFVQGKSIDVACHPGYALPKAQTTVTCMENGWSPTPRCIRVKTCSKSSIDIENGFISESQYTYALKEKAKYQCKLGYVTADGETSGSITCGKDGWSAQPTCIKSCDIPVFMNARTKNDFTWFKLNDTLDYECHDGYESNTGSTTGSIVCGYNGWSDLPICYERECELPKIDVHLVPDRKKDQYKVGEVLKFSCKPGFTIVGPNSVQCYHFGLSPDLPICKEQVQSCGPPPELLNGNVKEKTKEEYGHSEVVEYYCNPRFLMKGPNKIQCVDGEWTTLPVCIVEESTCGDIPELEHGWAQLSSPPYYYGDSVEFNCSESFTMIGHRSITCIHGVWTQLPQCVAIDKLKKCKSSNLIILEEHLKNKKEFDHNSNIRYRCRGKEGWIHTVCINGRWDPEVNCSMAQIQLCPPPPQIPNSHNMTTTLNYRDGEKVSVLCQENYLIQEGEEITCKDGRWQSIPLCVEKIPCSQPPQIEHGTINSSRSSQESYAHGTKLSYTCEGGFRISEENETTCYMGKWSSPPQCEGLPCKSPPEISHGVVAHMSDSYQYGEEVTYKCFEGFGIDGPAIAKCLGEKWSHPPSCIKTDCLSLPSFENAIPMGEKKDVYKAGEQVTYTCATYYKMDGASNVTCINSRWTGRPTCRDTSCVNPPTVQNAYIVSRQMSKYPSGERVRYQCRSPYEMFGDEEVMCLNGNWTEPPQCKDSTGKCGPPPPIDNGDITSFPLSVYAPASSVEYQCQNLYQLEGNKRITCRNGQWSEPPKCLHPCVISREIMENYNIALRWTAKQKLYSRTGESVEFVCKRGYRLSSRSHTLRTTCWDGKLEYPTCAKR
# cyclo(CGGGGEKTKGG)-BSA = molecular target: T6, cyclo(CGGGGEKTKGG)-BSA; assay: indirect ELISA
# cyclo(CGGGEKTKGG)-BSA = molecular target: T7, cyclo(CGGGEKTKGG)-BSA; assay: indirect ELISA
# [15] = molecular target: T10, alpha-synuclein sonicated preformed …; assay: cell-based or functional assay
# [16] = molecular target: alpha-synuclein in Lewy Body Disease (LBD/DLB) brain (human, UniProt P37840 1-140); assay: dot blot signal on LBD brain extract over control brain extract
# cyclo(CGGTKEQGGGG)-BSA [17] = molecular target: T2, cyclo(CGGTKEQGGGG)-BSA; assay: indirect ELISA
# Human Transferrin [18] = molecular target: T11, Human Transferrin; assay: indirect ELISA; remark: listed apart in the source
# [19] = molecular target: T12, Bovine serum albumin (BSA); assay: indirect ELISA; remark: listed apart in the source
# HSA [20] = molecular target: T13, HSA; assay: indirect ELISA; remark: listed apart in the source
# cyclo(CGGTKEQGGGG), free = molecular target: T8, cyclo(CGGTKEQGGGG), free; assay: indirect ELISA
# cyclo(CGGTKEQGGGG)-BSA [21] = molecular target: T2, cyclo(CGGTKEQGGGG)-BSA; assay: indirect ELISA
# cyclo(CGTKEQGGGG)-BSA [22] = molecular target: T4, cyclo(CGTKEQGGGG)-BSA; assay: indirect ELISA
# cyclo(CGGTKEQGG)-BSA [23] = molecular target: T5, cyclo(CGGTKEQGG)-BSA; assay: indirect ELISA
# [24] = molecular target: T10, alpha-synuclein sonicated preformed …; assay: SPR, antibody immobilized, kinetic fitting, 1:1 model
# [25] = molecular target: T9, alpha-synuclein oligomers; assay: as above
# [26] = molecular target: T10, alpha-synuclein sonicated preformed …; assay: SPR, antibody immobilized (~5000 RU), serial dilutions of analyte
binder,measurement,setting,value
B1,"dopaminergic neuron survival, antibody at 250 nM",[1],88.9 % of the control
same,fold selectivity for fibrils versus monomers (from LLoQ),[2],11200 fold
same,fold selectivity for oligomers versus monomers (from LLoQ),[3],9300 fold
same,ELISA reading,Human Transferrin [4],0.06
same,ELISA reading,"cyclo(CGTKEQGGGG), free [5]",1.25
same,ELISA reading,[6],0.066
same,ELISA reading,HSA [7],0.065
same,ELISA reading,cyclo(CGGTKEQGGGG)-BSA [8],1.95
same,ELISA reading,Linear CGGTKEQGG-BSA,0.045
same,ELISA reading,"cyclo(CGTKEQGGGG), free [9]",1.25
same,ELISA reading,cyclo(CGTKEQGGGG)-BSA [10],2.04
same,ELISA reading,cyclo(CGGTKEQGG)-BSA [11],0.064
B2,ELISA reading,Human Transferrin [12],0.054
same,ELISA reading,[13],0.052
same,ELISA reading,[14],0.064
same,ELISA reading,cyclo(CGGGGEKTKGG)-BSA,0.567
same,ELISA reading,cyclo(CGGGEKTKGG)-BSA,1.17
same,"endogenous phosphorylated α-syn aggregates in neurons exposed to PFFs, antibody at 0.05 µM",[15],153 % of the control
same,"dopaminergic neuron survival, antibody at 50 nM",[1],89.6 % of the control
same,Fold of reactivity LBD vs. Control (LBD / Control),[16],26.6 fold
B3,ELISA reading,cyclo(CGGTKEQGGGG)-BSA [17],1.01
same,ELISA reading,Human Transferrin [18],0.071
same,ELISA reading,[19],0.06
same,ELISA reading,HSA [20],0.052
same,ELISA reading,"cyclo(CGGTKEQGGGG), free",0.437
same,ELISA reading,cyclo(CGGTKEQGGGG)-BSA [21],0.756
same,ELISA reading,cyclo(CGTKEQGGGG)-BSA [22],2.07
same,ELISA reading,cyclo(CGGTKEQGG)-BSA [23],1.61
same,"endogenous phosphorylated α-syn aggregates in neurons exposed to PFFs, antibody at 0.05 µM",[15],148 % of the control
same,"dopaminergic neuron survival, antibody at 250 nM",[1],90.6 % of the control
same,Kd,[24],20 nM
same,koff,[24],5.62e-05 s⁻¹
same,kon,[24],2820 M⁻¹ s⁻¹
same,Kd,[25],1610 nM
same,koff,[25],0.00155 s⁻¹
same,kon,[25],966 M⁻¹ s⁻¹
same,fold selectivity for fibrils versus monomers (from LLoQ),[2],175000 fold
same,fold selectivity for oligomers versus monomers (from LLoQ),[3],35000 fold
same,"fold binding affinity, soluble fibril relative to monomer",[26],> 50 fold

# Reference: patent US20230051538A1 (UNIVERSITY OF BRITISH COLUMBIA, published 2023)
